Measured values from patent publication US20240182547A1 (MOGAM INSTITUTE FOR BIOMEDICAL RESEARCH, published 2024).

B1: 5C9 (antibody, V domains shown)
VH: QVQLVQSGSEVKKPGASVKVSCKASGYTFGHYGISWVRQAPGQGLEWMAWISAYNGNTDSIQKVQGRVTMTTDTSTNTAYLELRSLRSDDTAVYYCVRDVPATGGAATADYWGQGTTVTVSS
VL: DVVMTQSPLSLPVTLGQPASISCRSSQSLVFSDGNTYLSWFQQRPGQSPRRLIYKVSNRDSGVPDRFSASGSGTDFTLKISRVEADDVGVYYCMQVTHWPRTFGQGTKLEIKR
notes: IgG made in Expi293; also called #61; 61
B2: #62m (antibody, V domains shown)
VH: QVQLVQSGAEVKKPGASVKVSCKASGYTFGHYGISWVRQAPGQGLEWMAWISAYNGNTDSIQKVQGRVTMTTDTSTNTAYLELRSLRSDDTAVYYCVRDVPATGGAATADYWGQGTLVTVSS
VL: DVVMTQSPLSLPVPLGQPASISCRSSQSLVHSDGNTYLSWFQQRPGQSPRRLIYKVSDRDSGVPDRFSGSGSGTDFTLKISRVEAEDVGVYYCMQVTHWPRTFGQGTRLEIKR
notes: Germline-edited (m) form of 5C7, heavy chain edited; IgG; also called 5C7 (modified)
B3: 8A11 (antibody, V domains shown)
VH: QVQLVQSGSEVKKPGASVKVSCKASGYTFGHYGISWVRQAPGQGLEWMAWISAYNGNTDSIQKVQGRVTMTTDTSTNTAYLELRSLRSDDTAVYYCVRDVPATGGAATADYWGQGTLVTVSS
VL: DVVMTQSPLSLPVTLGQPASISCKSSRSLVHSDGNTYLSWFQQRPGQSPRRLIYKVSNRDSGVPDRFSASGSGTDFTLKISRVEADDVGVYYCMQVTHWPRTFGQGTKLEIKR
notes: IgG made in Expi293; also called #63; 63
B4: 5C7 (antibody, V domains shown)
VH: QVQLQQSGSEVKKPGASVKVSCKASGYTFGHYGISWVRQAPGQGLEWMAWISAYNGNTDSIQKVQGRVTMTTDTSTNTAYLELRSLRSDDTAVYYCVRDVPATGGAATADYWGQGTLVTVSS
VL: DVVMTQSPLSLPVPLGQPASISCRSSQSLVHSDGNTYLSWFQQRPGQSPRRLIYKVSDRDSGVPDRFSGSGSGTDFTLKISRVEAEDVGVYYCMQVTHWPRTFGQGTRLEIKR
notes: IgG made in Expi293; also called #62; 62
B5: #6m (antibody, V domains shown)
VH: EVQLVESGGGLVKPGGSLRLSCAGSGFTFSSYTMHWVRQAPGKGLEWVSSITGGSSYVDYSASVKGRFTISRDNAQSSLYLQMNSLRAEDTAVYYCARDDYGSGSYSNWFDPWGQGTLVTVSS
VL: QSVLTQPPSASGTPGQRVTISCTGSSSNIGAGYDVHWYQQLPGAAPRLLMFGNSNRPSGVPDRFSGSKSGTSASLAITGLQADDEADYYCQSYDRSLSHVFGTGTKVTVLG
notes: Germline-edited (m) form of 2E7, light chain edited; IgG; also called 2E7 (modified)
B6: 2H2 (antibody, V domains shown)
VH: QVQLVQSGGGLIQPGGSLRLSCAGSGFTFSSYTMHWVRQAPGKGLEWVSSITGGSSYVDYSASVKGRFTISRDNAQSSLYLQMNSLRAEDTAVYYCARDDYGSGSYSNWFDPWGQGTLVTVSS
VL: QSVLTQPPSVSGAPGQRVTISCTGSSSNIGAGYDVHWYQQLPGTAPKLLIFANTNRPSGVPDRFSGSKSGASASLAITGLQADDEADYYCQSYDRSLSHVFGTGTKVTVLG
notes: IgG made in Expi293; also called #7
B7: 12A1 (antibody, V domains shown)
VH: EVQLVESGGGLIQPGGSLRLSCAGSGFTFSSYTMHWVRQAPGKGLEWVSSITGGSSYVDYSASVKGRFTISRDNAQSSLYLQMNSLRAEDTAVYYCARDDYGSGSYSNWFDPWGQGTLVTVSS
VL: QSVLTQPPSVSGAPGQRVTISCTGSSSDIGAGYDVHWYQQLPGTAPKLLIFANTNRPSGVPDRFSGSKSGASASLAITGLQADDEADYYCQSYDRSLSHVFGTGTKVTVLG
notes: IgG made in Expi293; also called #8
B8: D25 (antibody, V domains shown)
VH: QVQLVQSGAEVKKPGSSVMVSCQASGGPLRNYIINWLRQAPGQGPEWMGGIIPVLGTVHYAPKFQGRVTITADESTDTAYIHLISLRSEDTAMYYCATETALVVSTTYLPHYFDNWGQGTLVTVSS
VL: DIQMTQSPSSLSAAVGDRVTITCQASQDIVNYLNWYQQKPGKAPKLLIYVASNLETGVPSRFSGSGSGTDFSLTISSLQPEDVATYYCQQYDNLPLTFGGGTKVEIK

Target: DS-Cav1 (RSV F-protein, pre-form, in-house) (respiratory syncytial virus (RSV), UniProt P03420 26-513)
Sequence (P03420 26-524): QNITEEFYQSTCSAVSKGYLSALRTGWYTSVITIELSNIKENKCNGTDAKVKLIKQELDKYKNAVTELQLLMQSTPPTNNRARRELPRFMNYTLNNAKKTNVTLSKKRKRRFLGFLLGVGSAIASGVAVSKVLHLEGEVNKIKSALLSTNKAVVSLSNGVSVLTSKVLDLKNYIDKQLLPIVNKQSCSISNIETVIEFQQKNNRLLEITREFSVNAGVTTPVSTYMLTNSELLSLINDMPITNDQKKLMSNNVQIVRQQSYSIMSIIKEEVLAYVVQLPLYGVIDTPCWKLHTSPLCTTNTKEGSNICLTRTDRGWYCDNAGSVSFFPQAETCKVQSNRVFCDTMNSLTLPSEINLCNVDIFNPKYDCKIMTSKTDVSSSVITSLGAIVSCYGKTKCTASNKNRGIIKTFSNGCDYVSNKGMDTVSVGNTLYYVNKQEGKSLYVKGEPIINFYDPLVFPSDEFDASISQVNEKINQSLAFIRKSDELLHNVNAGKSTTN
Experiment: ELISA, coated DS-Cav1, IgG titrated

First: B1
Second: B2
The Kd of the first is 1.6-fold lower: ~0.8 nM for the first, ~1.27 nM for the second.

B3 and B4 are within 1.5-fold of each other in Kd: ~0.69 nM for the first, ~0.84 nM for the second.

Compared with B5, B6 is 5.3-fold lower in Kd: ~2.34 nM for the first, ~0.44 nM for the second. The second binds more tightly here.

Going from B7 to B8, the Kd falls from ~1.66 nM to ~0.73 nM (2.3-fold).
